From patent publication US12612650B2, “Methods for improved homologous recombination and compositions thereof” (LIFE TECHNOLOGIES CORPORATION, priority 2017, dated 2026)
Where “and” joins values, the source holds several entries; their conditions need not be identical. Identical values can stand only once. Marks after values point to notes of the source that are not given here.

B1: puromycin-P2A-OFP: donor DNA, 1.4 kb: promoterless puromycin-P2A-OFP fragment with 35 nt homology arms to the beta-actin locus (nucleic acid)
DNA: CACAGCGCGCCCGGCTATTCTCGCAGCTCACCATGACCGAGTACAAGCCCACAGTGCGGCTGGCCACCAGGGACGATGTGCCTAGAGCTGTGCGGACACTGGCCGCTGCCTTCGCCGATTACCCTGCCACCAGACACACCGTGGACCCCGACAGACACATCGAGAGAGTGACCGAGCTGCAGGAACTGTTTCTGACCAGAGTGGGCCTGGACATCGGCAAAGTGTGGGTGGCCGATGATGGCGCCGCTGTGGCTGTGTGGACAACCCCTGAGTCTGTGGAAGCCGGCGCTGTGTTCGCCGAGATCGGACCTAGAATGGCCGAGCTGAGCGGCTCTAGACTGGCTGCCCAGCAGCAGATGGAAGGCCTGCTGGCCCCCCACAGACCTAAAGAGCCTGCCTGGTTTCTGGCCACCGTGGGCGTGTCACCTGACCACCAGGGCAAGGGACTGGGATCTGCTGTGGTGCTGCCTGGCGTGGAAGCTGCTGAAAGGGCTGGCGTGCCCGCCTTCCTGGAAACAAGCGCCCCCAGAAACCTGCCCTTCTACGAGAGACTGGGCTTCACCGTGACCGCCGACGTGGAAGTGCCTGAGGGCCCTAGAACCTGGTGCATGACCAGAAAGCCTGGCGCCGGAAGCGGAGCTACTAACTTCAGCCTGCTGAAGCAGGCTGGAGACGTGGAGGAGAACCCTGGACCTAACCTGAGCAAAAACGTGAGCGTGAGCGTGTATATGAAGGGGAACGTCAACAATCATGAGTTTGAGTACGACGGGGAAGGTGGTGGTGATCCTTATACAGGTAAATATTCCATGAAGATGACGCTACGTGGTCAAAATTCCCTACCCTTTTCCTATGATATCATTACCACGGCATTTCAGTATGGTTTCCGCGTATTTACAAAATACCCTGAGGGAATTGTTGACTATTTTAAGGATTCGCTTCCCGACGCATTCCAGTGGAACAGACGAATTGTGTTTGAAGATGGTGGAGTACTAAACATGAGCAGTGATATCACATATAAAGATAATGTTCTGCATGGTGACGTCAAGGCTGAGGGAGTGAACTTCCCGCCGAATGGGCCAGTGATGAAGAATGAAATTGTGATGGAGGAACCGACTGAAGAAACATTTACTCCAAAAAACGGGGTTCTTGTTGGCTTTTGTCCCAAAGCGTACTTACTTAAAGATGGTTCCTATTACTATGGAAATATGACAACATTTTACAGATCCAAGAAATCTGGCCAGGCACCTCCTGGGTATCACTTTGTTAAGCATCGTCTCGTCAAGACCAATGTGGGACATGGATTTAAGACGGTTGAGCAGACTGAATATGCCACTGCTCATGTCAGTGATCTTCCCAAATTCGAAGCTGATGATGATATCGCCGCGCTCGTCGTCGACAACGG
modifications: misc_feature 1..1402 Description of Unknown: Beta Actin sequence
notes: donor DNA, 1.4 kb: promoterless puromycin-P2A-OFP fragment with 35 nt homology arms to the beta-actin locus

Legend:
Type in all cases: cell-based, human
LRRK2 genomic locus = assay: Junction PCR and sequencing of clonal A549 cells, N-terminal tagging of LRRK2
Description: (§1) 293FT or A549 cells were maintained in DMEM medium supplemented with 10% FBS. On the day of transfection, cells were detached from the culture flask and counted. For each electroporation, 1.5 μg of Cas9 protein and 360 ng of gRNA were added to Resuspension Buffer R to a final volume of 7 μl, but the total volume of Cas9 protein plus gRNA added was less than 1 μl. Upon mixing, the sample was incubated at room temperature for 5 to 10 minutes to form Cas9 RNPs complex. Meanwhile, aliquots of 1×10^6 cells were washed once with DPBS without Ca^2+ and Mg^2+ and the cell pellets were resuspended in 50 μl of Resuspension Buffer R. A 5 μl aliquot of cell suspension was then mixed with 7 μl of Cas9 RNPs, followed by addition of 1 μl indicated amount of donor DNA. 10 μl of cell suspension containing Cas9 RNP and donor was applied to NEON® electroporation (Thermo Fisher Scientific, cat. no. MPK5000) with voltage set at 1150V, pulse width set at 20 ms, and the number of pulses set at 2, respectively. The electroporated cells were transferred to a 48-well plate containing 0.5 ml culture media. Samples without either gRNA or donor DNA served as controls. At 48 hours post transfection, the cells were analyzed by flow cytometry. Alternatively, the genomic loci were PCR-amplified with the corresponding primers. The resulting PCR fragments were analyzed using the GENEART® Genomic Cleavage Detection assay. The edited cells were further subjected to limiting dilution, followed by clonal cell isolation. The clonal cells were characterized by PCR amplification of both the N- and C-terminal junctions and sequencing. The sequencing data were analyzed using VECTOR NTI ADVANCE® 11.5 software (Thermo Fisher Scientific).
Besides beta-actin, we also evaluated a different protein in a different cell line. LRRK2 protein is related to Parkinson's disease with a molecular weight of approximately 280 kd. A gRNA was designed to target the LRRK2 genomic locus near the start codon. Approximately 35 nt homology arms were added to a sequence-verified promoterless puromycin-P2A-EmGFP DNA fragment via PCR amplification. The Cas9 RNP and donor DNA were co-delivered into A549 cells via NEON® electroporation using 1050 volts, 30 milliseconds and 2 pulses. Because LRRK2 is relatively low abundant protein, we were not able to detect EmGFP signal inside the cells. […] To examine the integration efficiency, the cells were treated with 0.75 μg/ml puromycin for 7 days at 48 hours post transfection, followed by limiting dilution and clonal cell isolation. The junctions were analyzed by PCR using one inner primer and one outer primer, or a pair of outer primers. The resulting PCR products were analyzed by sequencing to determine the precision of integration. […]

[1] = system: genomic locus of beta-actin; assay: OFP-positive cells by flow cytometry after electroporation of Cas9 RNP and donor DNA into 293FT cells
Description: as §1
To evaluate the strategy of tagging endogenous protein, we fused the OFP gene to the N-terminus of beta-actin. Beta-actin is one of the most abundant proteins in eukaryotes, so it is easy to monitor using fluorescence microscopy. A gRNA was designed and synthesized to target the genomic locus of beta-actin near the ATG start codon (Table 12) and then complexed with Cas9 nuclease to form RNPs. The relevant 35 nt homology arms were added to a sequence-verified promoterless puromycin-P2A-OFP DNA fragment by PCR amplification. The resulting donor PCR fragments were purified using PureLink™ PCR Purification Kit and then concentrated using a speed-vac to a final concentration of around 1 μg/μl. To examine the effect of donor dosage on HDR efficient, we kept the amount of Cas9 RNP constant and varied the amount of donor DNA. The Cas9 RNP and donor DNA were transfected into 293 FT via electroporation. At 48 hours post transfection, the cells were analyzed by fluorescence microscope. When the cells were transfected with Cas9 RNP alone or Cas9 protein with donor DNA, no OFP-positive cells were detected, whereas OFP-positive cells were observed when cells were transfected with Cas9 RNP and donor DNA. The percentages of OFP-positive cells were determined by flow cytometric analysis. Without selection, the percentage of OFP-positive cells increased from approximately 5% to 20% when the amount of donor DNA increased from 25 ng to 500 ng (FIG. 2A). The optimal amount of donor DNA was around 500 ng per reaction. On the other hand, after treatment of transfected cells with 1 μg/ml puromycin for 7 days, approximately 80% of cells were OFP-positive. There was no significant difference in the percentage of OFP-positive cells between different amounts of donor DNA (FIG. 2A). Next, we examined the effect of homology arm length on HDR efficiency. Various lengths of homology arms were added to the promoterless puromycin-P2A-OFP DNA fragment by PCR amplification. As depicted in FIG. 2B, when the homology arm length increased from 12 nt to 80 nt, the percentage of OFP-positive cells increased and then plateaued at around 35 nt.
Traditionally, a plasmid donor was used to incorporate large DNA molecules into the genome. […]

beta-actin locus = assay: Junction PCR and sequencing of clonal 293FT cells, integration at beta-actin locus
Description: as §1
To examine the identity of integration sites, cells transfected with Cas9 RNP and donor DNA were subjected to puromycin selection, limiting dilution, and clonal cell isolation. A total of 48 colonies were randomly picked for junction PCR analysis. […] All the other 47 colonies gave rise to PCR products for both N- and C-terminal junctions when one outer primer and one inner primer were used. The PCR product was also observed when a pair of outer primers was used with the size of about 420 bp, which corresponded to the genomic DNA fragment without an insert. The reason why a large PCR product containing the insert was not observed was because the smaller DNA fragment without the insert was preferentially amplified. […] The other 18% of clonal cells also contained the insert but had mutations at the junction areas (FIG. 3A(2)). Most of the mutations were deletion and insertion. Sometimes a duplicate sequence of a partial or full-length homology arm was inserted at the junction. At the C-terminal junction, approximately 78% of the clonal cells harbored precise HDR (FIG. 3B(1)) whereas the other 22% of cells had Indel formation at the junction (FIG. 3B(2)). Rarely, a relatively large piece of donor DNA (up to 165 nt) was deleted at the C-terminal junction. Overall, all the clonal cells contained one copy of donor DNA at the right genomic locus in one of the alleles with 68% of cells harbored precise HDR at both N- and C-termini and 32% of cells harbored imperfect HDR at either N- or C-terminus or both. […] Instead, approximately 80% of the clones had one “A” insertion at the Cas9 cleavage site and 20% of the clones harbored more than 2 nt deletion. Only one wild type clone was detected at the second allele (FIG. 3C). Most of the clones expressed both wild type beta-actin and OFP fusion of beta-actin as confirmed by Western Blot analysis.
To characterize each clonal cell in the stable pool, we performed limiting dilution and clonal cell isolation. The junctions of integration were analyzed by PCR and sequencing. As depicted in FIGS. 8B and 8C, approximately 88% of clonal cells harbored precise integration at N-terminal junction whereas 12% of clonal cells had some extra sequences inserted at the junction. […]

[2] = LRRK2, N-terminus, A549 clonal cells
[3] = Beta-actin, N-terminus, 293FT clonal cells

Molecule	Efficiency at allele 1 HDR/Indel (LRRK2 genomic locus; [2])	Efficiency at allele 1 Precise HDR (LRRK2 genomic locus; [2])	Efficiency at allele 2 No HDR/Indel (LRRK2 genomic locus; LRRK2, N-terminus, A549 clonal cells, 7 nt deletion)	integration efficiency (LRRK2 genomic locus; all 86 colonies contained at least one copy of the insert)	percentage of OFP-positive cells ([1]; after 1 μg/ml puromycin for 7 days)	% of functional Cells ([1]; determined by flow cytometry)	homology arm length at which percentage of OFP-positive cells plateaued ([1]; homology arm length 12 nt to 80 nt)	optimal amount of donor DNA ([1]; without selection)	percentage of OFP-positive cells ([1]; without selection, 25 ng donor DNA, 48 hours post transfection)	percentage of OFP-positive cells ([1]; without selection, 500 ng donor DNA, 48 hours post transfection)	Efficiency at allele 1 HDR/Indel (beta-actin locus; [3])	Efficiency at allele 2 No HDR/Indel (beta-actin locus; [3])	Efficiency at allele 2 Precise HDR (beta-actin locus; [3])	clonal cells with Indel formation / small mutations at the C-terminal junction (beta-actin locus; beta-actin locus, 293FT)	clonal cells with mutations or extra sequences at the N-terminal junction (beta-actin locus; beta-actin locus, 293FT)	clonal cells with precise HDR / correct junction at the C-terminal junction (beta-actin locus; beta-actin locus, 293FT)	clonal cells with precise HDR at the N-terminal junction (beta-actin locus; beta-actin locus, 293FT)	clones wild type (wt) (beta-actin locus; second allele)	clones with more than 2 nt deletion (beta-actin locus; second allele (no insert))	clones with one 'A' insertion at the Cas9 cleavage site (beta-actin locus; second allele (no insert))
puromycin-P2A-EmGFP: donor DNA, 1.4 kb: promoterless puromycin-P2A-EmGFP fragment with approximately 35 nt homology arms to LRRK2 locus	0%	100%	80%	100%																
B1					approximately 80%	80%^a	around 35 nt	around 500 ng per reaction	approximately 5%	~20%	32%	100%	0%	22%	18%	approximately 78%	approximately 82%	2%	18% and 20%	approximately 80%
